The source of these data is publication PMC4333399.

For data set [1], the target named is T1, PCG2-DBD WT (Magnaporthe oryzae, UniProt G4NA99 1-138). Put plainly: crystal structure; two PCG2-DBD monomers per duplex; SPR (Biacore T100, steady state): 20 mM Tris pH 8.0, 150 mM NaCl, 0.005% Tween20; temperature not stated. The note with it: protein: recombinant; tags: N-terminal 6xHis (pHAT2); chain copies: 2; blunt. A general note: SPR reads the build-up and loss of mass on a sensor chip optically.

Another data set has as its target PCG2-DBD 12-138 (Magnaporthe oryzae, UniProt G4NA99 12-138). Put plainly: SPR; SPR (Biacore T100, steady state): 20 mM Tris pH 8.0, 150 mM NaCl, 0.005% Tween20; temperature not stated. Particulars: protein: recombinant; tags: N-terminal 6xHis; chain copies: 2; label: 5'-biotin on strand S2; blunt.
A further data set has as its target PCG2-DBD 1-128 (Magnaporthe oryzae, UniProt G4NA99 1-128). The data set is described as above. Particulars: protein: recombinant; tags: N-terminal 6xHis; label: 5'-biotin on strand S2; blunt.
In another data set the target is PCG2-DBD 12-128 (Magnaporthe oryzae, UniProt G4NA99 12-128). The data set is described as above. The note with it: protein: recombinant; tags: N-terminal 6xHis; label: 5'-biotin on strand S2; blunt.
Data set [2] deals with T1, PCG2-DBD WT. The data set is described as above. Particulars: protein: recombinant; tags: N-terminal 6xHis (pHAT2); chain copies: 2; label: 5'-biotin on strand S2; blunt.

B1: MCB1 DNA (crystal) (dsDNA)
DNA 1: CAATGACGCGTAAG
DNA 2: CTTACGCGTCATTG
Turning to B1, in the data set with PCG2-DBD WT [1], the binding result was “binds”.

B2: MCB1 DNA (SPR) (dsDNA)
DNA 1: CTTACGCGTCATTG
DNA 2: CAATGACGCGTAAG
The Kd is the constant that tells how readily two partners part at equilibrium. In the case of B2, the equilibrium dissociation constant (Kd) in the data set with PCG2-DBD 12-138 was found to be 1370 ± 450 nM; in the data set with PCG2-DBD 1-128, 29.8 ± 6.3 µM; with PCG2-DBD 12-128, 48.3 ± 5.2 µM; with PCG2-DBD WT [2] it was 810 ± 30 nM.
